Data from patent US20180273623A1.

Target: EGFR (human) (UniProt P00533)
Experiment: flow cytometry on HCC-1954 cells, upper panel; staining antibody not named on the sheet or in the legend, assigned by analogy with FIG. 28A and 28C; open histogram shifted from the hatched control

EGFR 528 (phb 704) (antibody)
MFI: 262
